Test [1] has as its target T1, α5β1 integrin (UniProt P08648 42-1049; P05556 21-798).
T1 construct: whole, on cells; Endogenous integrin on J6 cells
Briefly: J6 cell adhesion to coated GST fusion that is left in the presence of BIO1211.

Test [2] addresses T2, α4β1 integrin (UniProt P13612 34-1032; P05556 21-798).
T2 construct: whole, on cells; Endogenous integrin on the J6 and HL60 cell lines; adhesion run with 0.2 mM MnCl2 (and TPA for HL60); also called α4 integrin on J6 and HL60 cells
In words: J6 cell adhesion to coated GST fusion, with and without BIO1211.

For test [3], the target named is T1, α5β1 integrin. Briefly: J6 cell adhesion to coated GST fusion in the presence of BIO1211.
The target in test [4] is T2, α4β1 integrin. In words: adhesion of J6 and HL60 cells to coated GST fusion with function blocking antibodies.
Description: Cells were incubated for 35 minutes at 37° C. in the presence of or absence of various function blocking anti-integrin antibodies at 10 μg/ml. To prebind the antibodies cells were preincubated on ice for 10 minutes before being moved to 37° C. Each data point represents the mean±SD of duplicate points. […] To stimulate α4β1 binding to OPN, 50 ng/ml TPA was also included. Cells were incubated for 35 minutes at 37° C. in the presence or absence of various function blocking anti-integrin antibodies at 10 μg/ml. To prebind the antibodies cells were preincubated on ice for 10 minutes before being moved to 37° C. Each data point represents the mean±SD of duplicate points.

T2 sequence (P13612 34-1032, chain 1 of 2): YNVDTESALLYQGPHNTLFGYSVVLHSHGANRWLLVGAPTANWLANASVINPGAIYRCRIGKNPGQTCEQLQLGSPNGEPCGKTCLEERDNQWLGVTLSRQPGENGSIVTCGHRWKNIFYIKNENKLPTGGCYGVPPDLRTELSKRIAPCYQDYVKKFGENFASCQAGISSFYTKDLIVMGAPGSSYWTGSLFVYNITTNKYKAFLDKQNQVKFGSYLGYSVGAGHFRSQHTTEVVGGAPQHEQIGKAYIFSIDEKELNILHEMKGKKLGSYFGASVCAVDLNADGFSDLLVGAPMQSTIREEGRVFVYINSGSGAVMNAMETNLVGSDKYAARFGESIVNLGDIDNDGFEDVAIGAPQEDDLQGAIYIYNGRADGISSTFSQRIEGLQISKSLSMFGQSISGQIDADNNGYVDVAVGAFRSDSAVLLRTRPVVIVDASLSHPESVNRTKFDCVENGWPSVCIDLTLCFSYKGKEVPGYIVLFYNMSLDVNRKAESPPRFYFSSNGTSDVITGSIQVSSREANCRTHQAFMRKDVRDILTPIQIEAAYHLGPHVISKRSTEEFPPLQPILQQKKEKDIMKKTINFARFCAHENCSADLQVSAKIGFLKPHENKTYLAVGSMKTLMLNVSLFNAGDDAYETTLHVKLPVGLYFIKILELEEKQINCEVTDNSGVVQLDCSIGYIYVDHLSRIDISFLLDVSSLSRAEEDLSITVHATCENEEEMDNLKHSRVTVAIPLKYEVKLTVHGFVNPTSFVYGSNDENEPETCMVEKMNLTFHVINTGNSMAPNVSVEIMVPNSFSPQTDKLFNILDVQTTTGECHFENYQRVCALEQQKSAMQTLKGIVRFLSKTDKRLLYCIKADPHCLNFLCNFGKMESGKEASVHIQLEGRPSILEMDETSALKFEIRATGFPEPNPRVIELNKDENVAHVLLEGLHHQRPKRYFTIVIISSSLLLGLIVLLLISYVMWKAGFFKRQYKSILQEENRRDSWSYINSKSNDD
T2 sequence (P05556 21-798, chain 2 of 2): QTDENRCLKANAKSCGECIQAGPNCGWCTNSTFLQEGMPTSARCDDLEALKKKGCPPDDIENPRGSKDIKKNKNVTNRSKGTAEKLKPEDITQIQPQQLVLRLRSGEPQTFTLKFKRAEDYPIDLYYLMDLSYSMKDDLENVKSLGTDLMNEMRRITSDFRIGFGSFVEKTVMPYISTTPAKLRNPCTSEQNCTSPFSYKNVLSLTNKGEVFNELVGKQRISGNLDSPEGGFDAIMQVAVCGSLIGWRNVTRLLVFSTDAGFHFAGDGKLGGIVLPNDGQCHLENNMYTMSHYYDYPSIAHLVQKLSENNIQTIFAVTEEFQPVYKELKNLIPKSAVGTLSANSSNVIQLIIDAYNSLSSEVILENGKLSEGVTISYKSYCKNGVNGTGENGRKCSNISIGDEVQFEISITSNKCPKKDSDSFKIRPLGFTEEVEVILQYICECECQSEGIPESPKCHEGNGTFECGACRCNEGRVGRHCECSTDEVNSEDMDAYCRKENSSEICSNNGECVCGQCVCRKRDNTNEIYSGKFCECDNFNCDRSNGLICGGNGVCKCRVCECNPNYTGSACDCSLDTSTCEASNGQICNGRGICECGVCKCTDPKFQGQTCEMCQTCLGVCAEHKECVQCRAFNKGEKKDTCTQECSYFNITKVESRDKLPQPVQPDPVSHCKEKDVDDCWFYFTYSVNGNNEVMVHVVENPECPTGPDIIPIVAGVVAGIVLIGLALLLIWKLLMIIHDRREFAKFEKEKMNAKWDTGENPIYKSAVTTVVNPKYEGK
T1 sequence (P08648 42-1049, chain 1 of 2): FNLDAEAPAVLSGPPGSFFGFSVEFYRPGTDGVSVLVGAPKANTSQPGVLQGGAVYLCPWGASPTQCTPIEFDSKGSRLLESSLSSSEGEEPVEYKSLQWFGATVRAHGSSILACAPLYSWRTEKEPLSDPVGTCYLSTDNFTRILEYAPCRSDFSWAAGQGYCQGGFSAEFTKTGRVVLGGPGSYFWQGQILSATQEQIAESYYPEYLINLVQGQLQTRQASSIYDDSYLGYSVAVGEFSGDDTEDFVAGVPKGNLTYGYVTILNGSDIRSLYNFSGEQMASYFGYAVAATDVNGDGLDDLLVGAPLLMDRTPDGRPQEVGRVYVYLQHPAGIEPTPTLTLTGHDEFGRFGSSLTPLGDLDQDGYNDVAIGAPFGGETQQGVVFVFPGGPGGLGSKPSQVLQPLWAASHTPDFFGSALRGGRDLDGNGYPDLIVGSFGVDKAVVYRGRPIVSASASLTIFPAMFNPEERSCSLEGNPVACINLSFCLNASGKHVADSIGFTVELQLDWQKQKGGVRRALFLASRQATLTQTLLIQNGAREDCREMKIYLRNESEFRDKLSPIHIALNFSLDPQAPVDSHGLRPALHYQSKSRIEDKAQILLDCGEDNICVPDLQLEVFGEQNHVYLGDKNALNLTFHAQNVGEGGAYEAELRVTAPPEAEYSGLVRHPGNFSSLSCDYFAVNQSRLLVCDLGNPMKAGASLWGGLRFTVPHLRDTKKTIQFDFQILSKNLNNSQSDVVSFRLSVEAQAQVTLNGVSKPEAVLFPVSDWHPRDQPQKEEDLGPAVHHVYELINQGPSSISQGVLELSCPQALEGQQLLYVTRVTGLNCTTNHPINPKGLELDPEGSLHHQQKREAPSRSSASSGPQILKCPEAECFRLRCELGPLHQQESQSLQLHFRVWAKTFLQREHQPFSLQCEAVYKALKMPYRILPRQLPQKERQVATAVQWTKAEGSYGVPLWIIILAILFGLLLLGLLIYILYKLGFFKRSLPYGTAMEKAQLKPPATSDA
T1 sequence (P05556 21-798, chain 2 of 2): as the sequence (P05556 21-798, chain 2 of 2) above

B1: GST fusion protein of thrombin cleaved OPN (aa17-168) (ligand)
chain: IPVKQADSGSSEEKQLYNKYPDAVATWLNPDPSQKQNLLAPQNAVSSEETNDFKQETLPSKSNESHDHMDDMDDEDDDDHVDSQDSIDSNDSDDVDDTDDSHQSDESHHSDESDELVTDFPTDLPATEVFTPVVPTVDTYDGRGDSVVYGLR
notes: Stop codon after aa168, so that Arg168 is the free C-terminus; also called thrombin cleaved fragment; not shown: GST carrier and the linker of the modified pGEX-2T vector
Take B1: the binding result in the test with α5β1 integrin [1] and with α4β1 integrin [2] was “binds” each time.

B2: GST fusion protein of OPN aa125-168 (ligand)
chain: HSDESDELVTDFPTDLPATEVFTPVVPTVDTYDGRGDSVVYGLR
notes: not shown: GST carrier and the linker of the modified pGEX-2T vector
For B2, the binding result with α5β1 integrin [3] and in the test with α4β1 integrin [2] was “binds” throughout.

B3: GST fusion protein representing intact osteopontin (aa17-314) (ligand)
chain: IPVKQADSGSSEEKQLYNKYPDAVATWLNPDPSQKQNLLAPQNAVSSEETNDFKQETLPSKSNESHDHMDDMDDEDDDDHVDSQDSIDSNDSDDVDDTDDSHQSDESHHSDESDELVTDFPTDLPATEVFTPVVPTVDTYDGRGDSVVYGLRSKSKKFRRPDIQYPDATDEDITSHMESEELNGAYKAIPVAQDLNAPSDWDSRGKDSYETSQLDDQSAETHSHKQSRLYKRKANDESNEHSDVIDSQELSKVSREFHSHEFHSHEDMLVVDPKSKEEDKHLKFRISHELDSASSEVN
notes: Expressed in E. coli UT5600; coated on plates; also called intact OPN; full length OPN; not shown: GST carrier and the linker of the modified pGEX-2T vector
Regarding B3, the binding result with α4β1 integrin [4] is “binds”.

The values are drawn from US20030186325A1 (GlaxoSmithKline, published 2003).
